Source: PMC6484134 (2019)

Experiments:
[1] = target: Cul3NΔ22 (human Cul3 N-terminal domain, residues 23–388, I342R L346D) (human, UniProt Q13618 23-388, I342R | L346D); experiment: ITC
[2] = target: Cul3N (human Cul3 N-terminal domain, residues 1–388, I342R L346D) (human, UniProt Q13618 1-388, I342R | L346D); experiment: ITC
Chain of Cul3N (human Cul3 N-terminal domain, residues 1–388, I342R L346D) (Q13618 1-388 I342R/L346D): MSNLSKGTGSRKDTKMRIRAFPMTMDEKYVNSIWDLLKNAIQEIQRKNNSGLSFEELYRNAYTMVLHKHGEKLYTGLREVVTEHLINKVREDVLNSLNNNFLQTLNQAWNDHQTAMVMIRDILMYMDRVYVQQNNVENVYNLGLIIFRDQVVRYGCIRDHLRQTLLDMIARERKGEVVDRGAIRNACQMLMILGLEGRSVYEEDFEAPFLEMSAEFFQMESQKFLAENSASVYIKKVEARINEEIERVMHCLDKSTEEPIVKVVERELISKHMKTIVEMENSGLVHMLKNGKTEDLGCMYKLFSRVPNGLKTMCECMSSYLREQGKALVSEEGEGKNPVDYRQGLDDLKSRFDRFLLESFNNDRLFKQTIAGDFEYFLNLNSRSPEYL

Chain of Cul3NΔ22 (human Cul3 N-terminal domain, residues 23–388, I342R L346D) (Q13618 23-388 I342R/L346D): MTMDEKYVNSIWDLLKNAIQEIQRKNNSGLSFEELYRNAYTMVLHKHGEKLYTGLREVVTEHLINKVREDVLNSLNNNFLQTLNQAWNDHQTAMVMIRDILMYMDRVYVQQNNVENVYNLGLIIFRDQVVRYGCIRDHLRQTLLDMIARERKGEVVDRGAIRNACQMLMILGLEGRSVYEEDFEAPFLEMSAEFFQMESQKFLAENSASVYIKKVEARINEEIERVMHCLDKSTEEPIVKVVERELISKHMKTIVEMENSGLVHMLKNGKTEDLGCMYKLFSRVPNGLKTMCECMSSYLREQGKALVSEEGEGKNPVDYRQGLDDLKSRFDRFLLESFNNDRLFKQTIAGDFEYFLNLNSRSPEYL

B1: KLHL3-BB (human KLHL3 BTB-BACK domain, residues 24–276) (domain or fragment)
chain: RTITVNPAHMGKAFKVMNELRSKQLLCDVMIVAEDVEIEAHRVVLAACSPYFCAMFTGDMSESKAKKIEIKDVDGQTLSKLIDYIYTAEIEVTEENVQVLLPAASLLQLMDVRQNCCDFLQSQLHPTNCLGIRAFADVHTCTDLLQQANAYAEQHFPEVMLGEEFLSLSLDQVCSLISSDKLTVSSEEKVFEAVISWINYEKETRLEHMAKLMEHVRLPLLPRDYLVQTVEEEALIKNNNTCKDFLIEAMKYH
Binder B1 has a Kd [1] of 36.2 nM and a Kd [2] of 22.9 nM.
